According to patent publication US20240293512A1 (HANMI PHARM, published 2024):
Bridge positions count the residues as written; N and C are the ends. Square brackets hold non-standard residues; d marks the D form. Ends that are not written are not given here. Aib = CC(C)(N)C(=O)O

T1: human GIP receptor (human, UniProt P48546 22-466)
T1 sequence (looked up): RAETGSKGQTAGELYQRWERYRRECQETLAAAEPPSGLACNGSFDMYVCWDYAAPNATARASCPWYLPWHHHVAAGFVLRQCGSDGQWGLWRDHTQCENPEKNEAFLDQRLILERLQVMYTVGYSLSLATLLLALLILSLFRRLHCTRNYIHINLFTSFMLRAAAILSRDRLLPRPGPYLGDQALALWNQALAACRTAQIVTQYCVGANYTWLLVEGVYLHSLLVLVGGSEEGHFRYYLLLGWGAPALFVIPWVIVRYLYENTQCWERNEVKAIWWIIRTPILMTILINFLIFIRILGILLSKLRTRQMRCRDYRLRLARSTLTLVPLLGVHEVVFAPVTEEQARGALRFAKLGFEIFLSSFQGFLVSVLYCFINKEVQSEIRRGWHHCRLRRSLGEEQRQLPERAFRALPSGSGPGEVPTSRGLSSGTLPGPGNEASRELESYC


How the values were obtained:
Assay in all cases: cell-based or functional assay
human GCG receptor = human GCG receptor (human, UniProt P47871 26-477)
Chain of human GCG receptor (P47871 26-477): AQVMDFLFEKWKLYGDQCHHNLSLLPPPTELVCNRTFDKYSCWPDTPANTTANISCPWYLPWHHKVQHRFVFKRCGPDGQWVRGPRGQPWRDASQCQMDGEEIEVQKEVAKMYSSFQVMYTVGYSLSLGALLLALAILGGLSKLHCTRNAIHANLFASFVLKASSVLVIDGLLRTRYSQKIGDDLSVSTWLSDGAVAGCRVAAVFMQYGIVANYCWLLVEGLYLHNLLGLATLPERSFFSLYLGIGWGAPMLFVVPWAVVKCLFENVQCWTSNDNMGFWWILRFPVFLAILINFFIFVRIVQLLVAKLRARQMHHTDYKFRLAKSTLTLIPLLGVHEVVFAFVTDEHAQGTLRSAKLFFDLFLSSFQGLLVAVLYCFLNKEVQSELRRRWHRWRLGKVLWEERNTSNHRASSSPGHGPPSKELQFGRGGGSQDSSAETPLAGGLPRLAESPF

human GIP receptor = molecular target: T1, human GIP receptor
human GLP-1 receptor = human GLP-1 receptor (human, UniProt P43220 24-463)

Row | Binder | In vitro activity compared with native peptide (%) vs Glucagon (cAMP EC50) (human GCG receptor) [%] | In vitro activity compared with native peptide (%) vs GIP (cAMP EC50) (human GIP receptor) [%] | In vitro activity compared with native peptide (%) vs GLP-1 (cAMP EC50) (human GLP-1 receptor) [%]
1 | H[Aib]QGTFTSDYSKYLDEKACKDFVQWLLDGGPSSGAPPPS (bridge 16-20) [triple agonist of SEQ ID NO: 32] | 1.7 | 8.8 | 151
2 | H[Aib]QGTFTSDYSIAMDEIHQKDFVNWLLAQKC (bridge 16-20) [triple agonist of SEQ ID NO: 33] | < 0.1 | 10.4 | 24.5
